According to patent US20230399395A1 (published 2023):
Where a chain is given by its changes, count along the chain named.

B1: Nb21 (VHH)
VHH: QVQLQESGGGSAQAGGSLKLSCVVSGYPYSGDYCMGWFRQAPGKEREGVAAFYTGGGSTYYADSVKGRFTTSQDNATSTFHLQMNSLKPEDTATYYCAADPWSVYGGSCGVKDPNPKAFNYWGQGTQVTVSS
B2: Nb25 (VHH)
VHH: QVQLQESGGGSVQAGGSLRLSCAASEYTYSRYCMGWFRQVPGKEREGVATIDSDGSTSYADSVKGRFTISKDNAKNTLYLQMNSLKPEDTAMYYCAARYFYIATTGLRPCGEYEYNYWGQGTQVTVSS
B3: Nb66 (VHH)
VHH: QVQLQESGGGSVQAGGSLRLSCAASGYTVSSNMGWFRQAPGKEREGVAAIYPDGATYYADSVKGRFTISQDNAENTVYLQMNSLKPEDTAMYYCAADLAFNGLGTLALHGYWGQGTQVTVSS
B4: Nb92 (VHH)
VHH: QVQLQESGGGLVQPGGSLRLSCAASGFTFSNYYMSWVRQAPGKGLEWVSSISSDGSNTYYEDSVKGRFTISRDNANNTLYLQMNSLKSEDTALYHCATDLYDDSWYDHWGQGTQVTVSS
B5: HuNb66-Fc (antibody, V domains shown)
VH: B3 VHH with Q1E, S11L, A14P, Q70R, A73S, V77L, K85R, P86A, Q117L
B6: HuNb21-Fc (antibody, V domains shown)
VH: EVQLQESGGGLVQPGGSLRLSCAASGYPYSGDYCMGWFRQAPGKEREGVAAFYTGGGSTYYADSVKGRFTISRDNSKNTLYLQMNSLRAEDTAVYYCAADPWSVYGGSCGVKDPNPKAFNYWGQGTLVTVSS

Molecular target: T1, human IL5 (human, UniProt P05113 20-134, biotinylated (IL5-biotin) in Examples 2, 5, 6, 9 and 11; site not stated)
Experiment: BLI

Row | Binder | Kd [nM]
1 | B1 | 0.629
2 | B2 | 0.491
3 | B3 | < 0.001
4 | B4 | 0.385

Molecular target: T1, human IL5
Experiment: ELISA

Row | Binder | EC50 [µg/mL]
5 | B1 | 0.0357
6 | B2 | 0.0427
7 | B3 | 0.0327
8 | B4 | 0.0432

Molecular target: T1, human IL5
Experiment: flow

Row | Binder | IC50 [µg/mL]
9 | B5 | 5.73
10 | B6 | 5.96

Molecular target: T1, human IL5
Experiment: flow cytometry blocking IL5/IL5R

Row | Binder | IC50 [µg/mL]
11 | B1 | 1.57
12 | B2 | 2.62
13 | B3 | 1.17
14 | B4 | 2.29
